Measured values from US20200010567A1 (NEURIMMUNE, published 2020).

Legend:
(PR)15: H-C(PR)15-OH = target: T1, (PR)15: H-C(PR)15-OH; assay: indirect ELISA, coated uncoupled peptide
T1 construct: synthetic, not coupled to BSA; also called poly-PR DPR protein peptide
T1 peptide: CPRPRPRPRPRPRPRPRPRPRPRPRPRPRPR

(GP)15: H-C(GP)15-OH = target: T2, (GP)15: H-C(GP)15-OH; assay: indirect ELISA, uncoupled peptide coated, antibody titrated [also D00014 FIG. 3H]
T2 construct: synthetic, not coupled to BSA; also called poly-GP DPR protein peptide
T2 peptide: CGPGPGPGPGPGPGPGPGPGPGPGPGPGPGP
Procedure: (§1) In brief, dipeptide repeat proteins were synthesized and purified by Schafer-N(Copenhagen, Denmark): (GA)₁₅: H-CHHHHHH(GA)₁₅-OH; (GP)₁₅: H-C(GP)₁₅-OH; (GR)₁₅: H-C(GR)₁₅-OH; (PA)₁₅: H-C(PA)₁₅-OH; (PR)₁₅: H—C(PR)₁₅-OH. DPR protein peptides were then conjugated via a bifunctional linker (SMCC) to bovine serum albumin (BSA). 96-well microplates (Corning Incorporated, Corning, USA) were coated with BSA-coupled or -uncoupled dipeptide repeat protein peptides at a concentration of either 5 μg/ml or 20 μg/ml in coating buffer (15 mM Na₂CO₃, 35 mM NaHCO₃, pH 9.42). Non-specific binding sites were blocked for 1 h at room temperature with PBS/0.1% Tween®-20 containing 2% BSA (Sigma-Aldrich, Buchs, Switzerland). Primary antibodies were diluted to the indicated concentrations and incubated 1 h at room temperature, followed by incubation with a donkey anti-human IgG Fcγ-specific antibody conjugated with HRP (Jackson ImmunoResearch Laboratories, Inc., West Grove, USA). Binding was determined by measurement of HRP activity in a standard colorimetric assay. EC₅₀ values were estimated by non-linear regression using GraphPad Prism software (San Diego, USA).

GA5: H-(GA)5HHHHHH-NH2 = target: T3, GA5: H-(GA)5HHHHHH-NH2; assay: indirect ELISA, His-tagged peptide coated at 50 ug/ml, antibody titrated [also D00026 FIG. 7K]
T3 peptide: H-GAGAGAGAGAHHHHHH-NH2
Procedure: as §1, with “96-well” for “In brief, dipeptide repeat proteins were synthesized and purified by Schafer-N(Copenhagen, Denmark): (GA)₁₅: H-CHHHHHH(GA)₁₅-OH; (GP)₁₅: H-C(GP)₁₅-OH; (GR)₁₅: H-C(GR)₁₅-OH; (PA)₁₅: H-C(PA)₁₅-OH; (PR)₁₅: H—C(PR)₁₅-OH. DPR protein peptides were then conjugated via a bifunctional linker (SMCC) to bovine serum albumin (BSA). 96-well”, “with” for “with BSA-coupled or -uncoupled”, “50” for “either 5 μg/ml or 20”
(§2) High affinity binding was detected for poly-GA DPRs harboring 10 or 20 (GA)-repeats, reflected in an EC₅₀ in the subnanomolar or low nanomolar range (FIGS. 7A, 7C-7I).

GA4: H-(GA)4HHHHHH-NH2 = target: T4, GA4: H-(GA)4HHHHHH-NH2; assay: as above
T4 peptide: H-GAGAGAGAHHHHHH-NH2
Procedure: as §1, with “96-well” for “In brief, dipeptide repeat proteins were synthesized and purified by Schafer-N(Copenhagen, Denmark): (GA)₁₅: H-CHHHHHH(GA)₁₅-OH; (GP)₁₅: H-C(GP)₁₅-OH; (GR)₁₅: H-C(GR)₁₅-OH; (PA)₁₅: H-C(PA)₁₅-OH; (PR)₁₅: H—C(PR)₁₅-OH. DPR protein peptides were then conjugated via a bifunctional linker (SMCC) to bovine serum albumin (BSA). 96-well”, “with” for “with BSA-coupled or -uncoupled”, “50” for “either 5 μg/ml or 20”
as §2

GA3: H-(GA)3HHHHHH-NH2 = target: T5, GA3: H-(GA)3HHHHHH-NH2; assay: as above
T5 peptide: H-GAGAGAHHHHHH-NH2
Procedure: as §1, with “96-well” for “In brief, dipeptide repeat proteins were synthesized and purified by Schafer-N(Copenhagen, Denmark): (GA)₁₅: H-CHHHHHH(GA)₁₅-OH; (GP)₁₅: H-C(GP)₁₅-OH; (GR)₁₅: H-C(GR)₁₅-OH; (PA)₁₅: H-C(PA)₁₅-OH; (PR)₁₅: H—C(PR)₁₅-OH. DPR protein peptides were then conjugated via a bifunctional linker (SMCC) to bovine serum albumin (BSA). 96-well”, “with” for “with BSA-coupled or -uncoupled”, “50” for “either 5 μg/ml or 20”
as §2

GA2: H-(GA)2HHHHHH-NH2 = target: T6, GA2: H-(GA)2HHHHHH-NH2; assay: as above
T6 peptide: H-GAGAHHHHHH-NH2
Procedure: as §1, with “96-well” for “In brief, dipeptide repeat proteins were synthesized and purified by Schafer-N(Copenhagen, Denmark): (GA)₁₅: H-CHHHHHH(GA)₁₅-OH; (GP)₁₅: H-C(GP)₁₅-OH; (GR)₁₅: H-C(GR)₁₅-OH; (PA)₁₅: H-C(PA)₁₅-OH; (PR)₁₅: H—C(PR)₁₅-OH. DPR protein peptides were then conjugated via a bifunctional linker (SMCC) to bovine serum albumin (BSA). 96-well”, “with” for “with BSA-coupled or -uncoupled”, “50” for “either 5 μg/ml or 20”
as §2

(GR)15: H-C(GR)15-OH [1] = target: T7, (GR)15: H-C(GR)15-OH; assay: indirect ELISA, coated uncoupled peptide
T7 construct: synthetic, not coupled to BSA; also called poly-GR DPR protein peptide
T7 peptide: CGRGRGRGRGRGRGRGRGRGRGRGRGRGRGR

(GR)15: H-C(GR)15-OH [2] = target: T7, (GR)15: H-C(GR)15-OH; assay: indirect ELISA, uncoupled peptide coated, antibody titrated [also D00014 FIG. 3I]
Procedure: as §1

B1: NI-308.24E11 (antibody, V domains shown)
VH: QVQLQESGPGLVKPSETLSLTCTVSTTSLRSYFWSWIRQPPGKGLEWIGYVYYSGSTIYNPSLKNRVTISIDTSKNQFSLNLRSVTAADTAMYFCARGVPAETDARDFPPYYFDHWGQGTLVTVSS
VL: CDIQLTQSPSSLSASVGNRITFTCQASQDIRYYLNWYQQKPGKAPKLLIYDVSNLDTGVPPRFSGSGSGTNFTFTISSLQPEDIAVYYCQQYEGLPVTFGGGTKVEIK
notes: Recombinant complete human IgG1, kappa
B1 gave an EC50 ((PR)15: H-C(PR)15-OH) of 12.8 nM.

B2: NI-308.46E9 (antibody, V domains shown)
VH: QVQLQESGPGLVKPSETLSLTCTVSGASISGSTYYWGWIRQPPGKGLEYIGRIYYSGSTYYNPSLKSRATISVDTSKNQLSLTLSSVTAADTAVYYCVRPFYAGSGNSPFDYWGQGTLVTVSS
VL: CEIVLTQSPATVSVSPGERATLSCRASQSVSTNLAWYQQKPGQPPRLLIYGASTRATGIPARFSGSGSGAEFTLTISSLQSEDFVVYYCQQYNNWPPAFGGGTKVEIK
notes: as for B1
For B2, the EC50 ((GP)15: H-C(GP)15-OH) was 22 nM.

B3: NI-308.5G2 (antibody, V domains shown)
VH: EVQLVQSGADLRNPGASVTVSCTASGYHFADNAINWLRQAPGQRLEWMGWINIYSGNTKYSQNFQGRVTFTRNTSASTAFMHLRSLRSEDTAVYFCARDPDSSGYYLPYFDYWGQGTLVTVSS
VL: DIQLTQSPDSLTLSLGERATINCKSSQSVFYNSNNKNYLAWYQQKPGQPPKLLMYWASTRESGVTDRFSGSGSGTDFTLTITNLQAEDVAVYYCQQFYSSPLTFGGGTKVEIK
notes: as for B1
B3: no binding (tested: about 4x10^5 pM (last point)) (GA5: H-(GA)5HHHHHH-NH2); no binding (tested: about 4x10^5 pM (last point)) (GA4: H-(GA)4HHHHHH-NH2); no binding (tested: about 4x10^5 pM (last point)) (GA3: H-(GA)3HHHHHH-NH2). B3: no binding (tested: about 4x10^5 pM (last point)) (GA2: H-(GA)2HHHHHH-NH2).

B4: NI-308.6B11 (antibody, V domains shown)
VH: EVQLVQSGAEVKRPGASVKVSCKVSGYTLTELSMHWVRQAPGKGLEWMGGFDPEDGETVYAQKFQGRVTMTEDTSTDTAYMELSSLRSEDTALYHCATYGSSWHWNEGNEGSYYFDYWGQGTLVTVSS
VL: CDIQMTQSPSSLSASVGDRVTITCQASQDISIYLNWYQQKPGKAPKLLIYDASNLETGVPSRFSGSGSGTDFTFTISGLQPEDVARYYCQQYDDLPITFGQGTRLEIK
notes: as for B1
With B4 the EC50 ((GR)15: H-C(GR)15-OH [1]) was 0.94 nM and the EC50 ((GR)15: H-C(GR)15-OH [2]) was 1.3 nM.
